Results reported in patent publication US20260209348A1 (University of California, published 2026).

B1: grafted humanized 6E6: VH3-21*01 (extended) + VK1-12*01 (IMGT) (antibody, V domains shown)
VH: EVQLVESGGGLVKPGGSLRLSCAASGFTFSNYGMSWVRQAPGKGLEWVSTISSGGGYTHYVDSVKGRFTISRDNAKNSLYLQMNSLRAEDTAVYYCARHPRDFSYAMDYWGQGTTVTVSS
VL: DIQMTQSPSSVSASVGDRVTITCRASQDVGHYLAWYQQKPGKAPKLLIYWASSLQSGVPSRFSGSGSGTDFTLTISSLQPEDFATYYCQQYNIYPWTFGQGTKVEIK
notes: expressed as IgG
B2: grafted humanized 6E6: VH3-21*01 (IMGT) + VK1-12*01 (extended) (antibody, V domains shown)
VH: EVQLVESGGGLVKPGGSLRLSCAASGFTFSNYGMNWVRQAPGKGLEWVSSISSGGGYTYYADSVKGRFTISRDNAKNSLYLQMNSLRAEDTAVYYCARHPRDFSYAMDYWGQGTTVTVSS
VL: DIQMTQSPSSVSASVGDRVTITCKASQDVGHYVAWYQQKPGKAPKLLIYWASTRHTGVPSRFSGSGSGTDFTLTISSLQPEDFATYYCQQYNIYPWTFGQGTKVEIK
notes: expressed as IgG
B3: grafted humanized 6E6: VH3-11*03 (extended) + VK1-12*01 (extended) (antibody, V domains shown)
VH: QVQLLESGGGLVKPGGSLRLSCAASGFTFSNYGMSWIRQAPGKGLEWVSTISSGGGYTHYVDSVKGRFTISRDNAKNSLYLQMNSLRAEDTAVYYCARHPRDFSYAMDYWGQGTTVTVSS
VL: DIQMTQSPSSVSASVGDRVTITCKASQDVGHYVAWYQQKPGKAPKLLIYWASTRHTGVPSRFSGSGSGTDFTLTISSLQPEDFATYYCQQYNIYPWTFGQGTKVEIK
notes: expressed as IgG
B4: grafted humanized 6E6: VH3-21*01 (IMGT) + VK1-12*01 (IMGT) (antibody, V domains shown)
VH: EVQLVESGGGLVKPGGSLRLSCAASGFTFSNYGMNWVRQAPGKGLEWVSSISSGGGYTYYADSVKGRFTISRDNAKNSLYLQMNSLRAEDTAVYYCARHPRDFSYAMDYWGQGTTVTVSS
VL: DIQMTQSPSSVSASVGDRVTITCRASQDVGHYLAWYQQKPGKAPKLLIYWASSLQSGVPSRFSGSGSGTDFTLTISSLQPEDFATYYCQQYNIYPWTFGQGTKVEIK
notes: expressed as IgG
B5: grafted humanized 6E6: VH3-11*03 (IMGT) + VK1-12*01 (extended) (antibody, V domains shown)
VH: QVQLLESGGGLVKPGGSLRLSCAASGFTFSNYGMSWIRQAPGKGLEWVSYISSGGGYTNYADSVKGRFTISRDNAKNSLYLQMNSLRAEDTAVYYCARHPRDFSYAMDYWGQGTTVTVSS
VL: DIQMTQSPSSVSASVGDRVTITCKASQDVGHYVAWYQQKPGKAPKLLIYWASTRHTGVPSRFSGSGSGTDFTLTISSLQPEDFATYYCQQYNIYPWTFGQGTKVEIK
notes: expressed as IgG
B6: grafted humanized 6E6: VH3-21*01 (extended) + VK1-12*01 (extended) (antibody, V domains shown)
VH: EVQLVESGGGLVKPGGSLRLSCAASGFTFSNYGMSWVRQAPGKGLEWVSTISSGGGYTHYVDSVKGRFTISRDNAKNSLYLQMNSLRAEDTAVYYCARHPRDFSYAMDYWGQGTTVTVSS
VL: DIQMTQSPSSVSASVGDRVTITCKASQDVGHYVAWYQQKPGKAPKLLIYWASTRHTGVPSRFSGSGSGTDFTLTISSLQPEDFATYYCQQYNIYPWTFGQGTKVEIK
notes: expressed as IgG
B7: grafted humanized 6E6: VH3-11*03 (IMGT) + VK1-12*01 (IMGT) (antibody, V domains shown)
VH: QVQLLESGGGLVKPGGSLRLSCAASGFTFSNYGMSWIRQAPGKGLEWVSYISSGGGYTNYADSVKGRFTISRDNAKNSLYLQMNSLRAEDTAVYYCARHPRDFSYAMDYWGQGTTVTVSS
VL: DIQMTQSPSSVSASVGDRVTITCRASQDVGHYLAWYQQKPGKAPKLLIYWASSLQSGVPSRFSGSGSGTDFTLTISSLQPEDFATYYCQQYNIYPWTFGQGTKVEIK
notes: expressed as IgG
B8: grafted humanized 6E6: VH3-21*01 (extended) + VK1-8*01 (IMGT) (antibody, V domains shown)
VH: EVQLVESGGGLVKPGGSLRLSCAASGFTFSNYGMSWVRQAPGKGLEWVSTISSGGGYTHYVDSVKGRFTISRDNAKNSLYLQMNSLRAEDTAVYYCARHPRDFSYAMDYWGQGTTVTVSS
VL: AIRMTQSPSSFSASTGDRVTITCRASQDVGHYLAWYQQKPGKAPKLLIYWASTLQSGVPSRFSGSGSGTDFTLTISCLQSEDFATYYCQQYNIYPWTFGQGTKVEIK
notes: expressed as IgG
B9: grafted humanized 6E6: VH3-21*01 (IMGT) + VK1-8*01 (IMGT) (antibody, V domains shown)
VH: EVQLVESGGGLVKPGGSLRLSCAASGFTFSNYGMNWVRQAPGKGLEWVSSISSGGGYTYYADSVKGRFTISRDNAKNSLYLQMNSLRAEDTAVYYCARHPRDFSYAMDYWGQGTTVTVSS
VL: AIRMTQSPSSFSASTGDRVTITCRASQDVGHYLAWYQQKPGKAPKLLIYWASTLQSGVPSRFSGSGSGTDFTLTISCLQSEDFATYYCQQYNIYPWTFGQGTKVEIK
notes: expressed as IgG
B10: grafted humanized 6E6: VH3-11*03 (extended) + VK1-8*01 (IMGT) (antibody, V domains shown)
VH: QVQLLESGGGLVKPGGSLRLSCAASGFTFSNYGMSWIRQAPGKGLEWVSTISSGGGYTHYVDSVKGRFTISRDNAKNSLYLQMNSLRAEDTAVYYCARHPRDFSYAMDYWGQGTTVTVSS
VL: AIRMTQSPSSFSASTGDRVTITCRASQDVGHYLAWYQQKPGKAPKLLIYWASTLQSGVPSRFSGSGSGTDFTLTISCLQSEDFATYYCQQYNIYPWTFGQGTKVEIK
notes: expressed as IgG
B11: grafted humanized 6E6: VH3-11*03 (extended) + VK1-12*01 (IMGT) (antibody, V domains shown)
VH: QVQLLESGGGLVKPGGSLRLSCAASGFTFSNYGMSWIRQAPGKGLEWVSTISSGGGYTHYVDSVKGRFTISRDNAKNSLYLQMNSLRAEDTAVYYCARHPRDFSYAMDYWGQGTTVTVSS
VL: DIQMTQSPSSVSASVGDRVTITCRASQDVGHYLAWYQQKPGKAPKLLIYWASSLQSGVPSRFSGSGSGTDFTLTISSLQPEDFATYYCQQYNIYPWTFGQGTKVEIK
notes: expressed as IgG
B12: h6E6-090 (antibody, V domains shown)
VH: EVQLVESGGGLVKPGGSLRLSCAASGFTFSTYGTSWVRQAPGKGLEWVSTISSGGGYTHYAPSVKGRFTISRDNAKNSLYLQMNSLRAEDTAVYYCARHPRDFSYALDYWGQGTTVTVSS
VL: EIVMTQSPATLSVSPGERATLSCKASQDVGHYLAWYQQKPGQAPRLLIYWASTRHTGIPARFSGSGSGTEFTLTISSLQSEDFAVYYCQQYNIYPWTFGQGTKVEIK
notes: also called clone 90
B13: h6E6-097 (antibody, V domains shown)
VH: EVQLVESGGGLVKPGGSLRLSCAASGFTFSAYGMSWVRQAPGKGLEWVSTISSGGGYTHYVESVKGRFTISRDNAKNSLYLQMNSLRAEDTAVYYCARHPRDFSYAMDYWGQGTTVTVSS
VL: EIVMTQSPATLSVSPGERATLSCKASQDVGHYVAWYQQKPGQAPRLLIYWASTRATGIPARFSGSGSGTEFTLTISSLQSEDFAVYYCQQYNIYPWTFGQGTKVEIK
notes: also called clone 97
B14: h6E6-106 (antibody, V domains shown)
VH: EVQLVESGGGLVKPGGSLRLSCAASGFTFSSYGISWVRQAPGKGLEWVSTISSGGGYTYYVDSVKGRFTISRDNAKNSLYLQMNSLRAEDTAVYYCARHPRDFSYALDYWGQGTTVTVSS
VL: EIVMTQSPATLSVSPGERATLSCKASQDVGHYVAWYQQKPGQAPRLLIYWASTRATGIPARFSGSGSGTEFTLTISSLQSEDFAVYYCQQYNIYPWTFGQGTKVEIK
notes: also called clone 106
B15: h6E6-084 (antibody, V domains shown)
VH: EVQLVESGGGLVKPGGSLRLSCAASGFTFSQYGMSWVRQAPGKGLEWVSTISSGGGYTHYVQSVKGRFTISRDNAKNSLYLQMNSLRAEDTAVYYCARHPRDFSYAQDYWGQGTTVTVSS
VL: EIVMTQSPATLSVSPGERATLSCKASQDVGHYLAWYQQKPGQAPRLLIYWASTRATGIPARFSGSGSGTEFTLTISSLQSEDFAVYYCQQYNIYPWTFGQGTKVEIK
notes: also called clone 84
B16: h6E6-109 (antibody, V domains shown)
VH: EVQLVESGGGLVKPGGSLRLSCAASGFTFSNYGTSWVRQAPGKGLEWVSTISSGGGYTHYVTSVKGRFTISRDNAKNSLYLQMNSLRAEDTAVYYCARHPRDFSYAMDYWGQGTTVTVSS
VL: EIVMTQSPATLSVSPGERATLSCKASQDVGHYVAWYQQKPGQAPRLLIYWASTRATGIPARFSGSGSGTEFTLTISSLQSEDFAVYYCQQYNIYPWTFGQGTKVEIK
notes: also called clone 109
B17: h6E6-117 (antibody, V domains shown)
VH: EVQLVESGGGLVKPGGSLRLSCAASGFTFSVYGISWVRQAPGKGLEWVSTISSGGGYTHYAPSVKGRFTISRDNAKNSLYLQMNSLRAEDTAVYYCARHPRDFSYAMDYWGQGTTVTVSS
VL: EIVMTQSPATLSVSPGERATLSCKASQDVGHYVAWYQQKPGQAPRLLIYWASTRATGIPARFSGSGSGTEFTLTISSLQSEDFAVYYCQQYNIYPWTFGQGTKVEIK
notes: also called clone 117
B18: h6E6-110 (antibody, V domains shown)
VH: EVQLVESGGGLVKPGGSLRLSCAASGFTFSHYGVSWVRQAPGKGLEWVSTISSGGGYTHYAESVKGRFTISRDNAKNSLYLQMNSLRAEDTAVYYCARHPRDFSYAQDYWGQGTTVTVSS
VL: EIVMTQSPATLSVSPGERATLSCRASQDVGHYLAWYQQKPGQAPRLLIYWASTRATGIPARFSGSGSGTEFTLTISSLQSEDFAVYYCQQYNIYPWTFGQGTKVEIK
notes: also called clone 110
B19: h6E6-099 (antibody, V domains shown)
VH: EVQLVESGGGLVKPGGSLRLSCAASGFTFSNYGMNWVRQAPGKGLEWVSTISSGGGYTHYAPSVKGRFTISRDNAKNSLYLQMNSLRAEDTAVYYCARHPRDFSYAMDYWGQGTTVTVSS
VL: EIVMTQSPATLSVSPGERATLSCKASQDVGHYVAWYQQKPGQAPRLLIYWASTRATGIPARFSGSGSGTEFTLTISSLQSEDFAVYYCQQYNIYPWTFGQGTKVEIK
notes: also called clone 99
B20: h6E6-089 (antibody, V domains shown)
VH: EVQLVESGGGLVKPGGSLRLSCAASGFTFSDYGISWVRQAPGKGLEWVSTISSGGGYTHYVQSVKGRFTISRDNAKNSLYLQMNSLRAEDTAVYYCARHPRDFSYAMDYWGQGTTVTVSS
VL: EIVMTQSPATLSVSPGERATLSCKASQDVGHYLAWYQQKPGQAPRLLIYWASTRATGIPARFSGSGSGTEFTLTISSLQSEDFAVYYCQQYNIYPWTFGQGTKVEIK
notes: also called clone 89
B21: h6E6-115 (antibody, V domains shown)
VH: EVQLVESGGGLVKPGGSLRLSCAASGFTFSGYGMSWVRQAPGKGLEWVSTISSGGGYTHYVTSVKGRFTISRDNAKNSLYLQMNSLRAEDTAVYYCARHPRDFSYALDYWGQGTTVTVSS
VL: EIVMTQSPATLSVSPGERATLSCRASQDVGHYLAWYQQKPGQAPRLLIYWASTRATGIPARFSGSGSGTEFTLTISSLQSEDFAVYYCQQYNIYPWTFGQGTKVEIK
notes: also called clone 115

Each binder was assayed against T1, human ROR2 (human, UniProt Q01974 34-403, limits assumed) (assay: SPR).
T1 sequence (Q01974 34-403 limits assumed): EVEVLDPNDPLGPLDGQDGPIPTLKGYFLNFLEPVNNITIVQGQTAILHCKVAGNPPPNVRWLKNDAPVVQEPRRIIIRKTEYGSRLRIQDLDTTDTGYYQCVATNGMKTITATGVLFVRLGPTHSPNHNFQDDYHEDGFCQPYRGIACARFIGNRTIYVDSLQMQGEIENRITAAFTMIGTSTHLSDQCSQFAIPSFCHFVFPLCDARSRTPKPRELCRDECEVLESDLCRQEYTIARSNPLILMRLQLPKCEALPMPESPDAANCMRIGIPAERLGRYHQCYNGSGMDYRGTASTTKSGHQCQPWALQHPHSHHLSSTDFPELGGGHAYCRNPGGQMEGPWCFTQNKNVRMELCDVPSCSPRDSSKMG
B1 gave a Kd of 0.52 nM.
B2: no binding.
B3 showed a Kd of 2.1 nM.
B4: no binding.
Binder B5 has a Kd of 162 nM.
B6 showed a Kd of 0.67 nM.
In the case of B7, the Kd is reported as 178 nM.
For B8, the Kd was 10 nM.
B9: no binding.
For B10, the Kd was 1.1 nM.
B11: no binding.

Target: T1, human ROR2
Test: SPR
Remark: another data set of the same source
Method in brief: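 Values are dissociation constants (Kd, nM) for binding to human ROR2, measured by surface plasmon resonance. The monoclonal antibodies tested were humanized anti-human ROR2 antibodies built from murine complementarity-determining regions placed into human acceptor frameworks, with a human IgG1 constant region. Antigen format, concentrations, temperature, buffer and replicates are not given.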
B12 showed a Kd of 0.178 nM.
B13 showed a Kd of 0.096 nM.
In the case of B14, the Kd is reported as 0.642 nM.
Work on B15 yielded a Kd of 0.108 nM.
With B16 the Kd was 0.151 nM.
With B17 the Kd was 0.323 nM.
Binder B18 has a Kd of 0.073 nM.
Work on B19 yielded a Kd of 0.286 nM.
In the case of B20, the Kd is reported as 2.2 nM.
B21 showed a Kd of 0.187 nM.
